# Experiment: soluble on expression in E. coli; label from the status in PepcDB or PDB records
row,Sequence,soluble on expression in E. coli
1,GPGSMNVDDFRTVIPSPVYVATRGERSGINVAVRALAPVTDVVFDMEEQFAVVCQRRRFSTYAISSWMESLDVPSIPGAAVPLVSVEPQGFSSLGFALSALQFLSSSLHVIAGYHRAPVVDIFDLENVDEETSEPQQRFNLTDVKENGNVEDGSSAYANDVMPMDRYVSLGALSSGLSVWLDSRSGKAEACTGVLTRQYTIGAHNRHTGRRDPLACVTSLCQGNPANILLGTEAGALQLWDVRCARECVAQHMTSASICRLHPSYSYPLRNVVWLNTLAGCVEAVSVGQSDMELLARRLCPDFQRSSSTFHLPPPRLSFMESSGVVACPHISSGKLLLYDGSSLVKQPNNSRTQLSSYNRGVDGKDNEYENGHCSNFGGFLREASSSSEESGEREIPLLNALPSEANALVTACTVWSNRDMFVLGDETGRVQLL,not soluble
2,GPGSMPKSKRAKIVPLTKTQAKTREDKDKLIERIREALEDYSDVYTFQLHNIRTNILQQIREERAGDSRIFLGNNKVMMIAIGRDEESAQRQNLHKLSPFLTGLCGLLFTNLSKKEVKEYFATVGAPVYARTGQTATESLVLKGGPLPQFPHSMFDHLAKLGLPIKLDRGVIVLLQDTTVCEPGDTLSAEAAQLLKLFGVQSAKFKMDLTAHWTSGVAKKVSSSASKRSEK,soluble
3,GPGSMPNEKAQTLTVAEAFAETSKALQQFNIERIRVDGLSRGNACDEEKFRMLTEQEFMREFVFHSRPCIIVGALCDWPALQRWRDDRYLFDLDEKLPMVYEKERTSKGNGEINENDSFHEDEEIVTESDAEDSKNGTSNNEAESQGTLGPRRVTVALTPNGRADAVTYVTYNAVKNESQVHDKLEGKSDFVVTEKLFMSAAELRVTLPELYRLLRANPLVPPLKSQFVDLRRPQRSIAYAQMQNNCLAEEYQHLHADIDTALDRFGTRVFGGKREAANIWLGTPASVSSMHQDWVENLYAVVRGVKEFILVPPWEGVFVPKPELPAAAFTLKAAANCKEGEEEYIFSDSPTRDGTSVPWMDVELTPAAVDDPLHIKEELRDKLHPLIAYVQPGEVLYLPALWLHRVAQHADSEDSRVIEEASTEEIAKVSRHDQKHSAPLPLIAAVNYWYDMSFTNPAVVMLREFGLLL,not soluble
4,GPGSMPQPSALQSARSFLGTVAEDSVRCDRGLDSVPHNEAGLRCLAADGNWSAVAELAERLSAAATEETAEGLSRRLQFILVQVTANFHMQRYNVAKKLVESLGDLNSERYIDPKTSESTVPFSLRFISAIIPLYIGTKMDSQQRLYALLRDCRENLGKYASAVWVARIKRVQRALVVSHYQVEQYSEALRIYNELIAVEGNADGDDMGSYALLRRMLHLHQFAALALFCGNASFANSIYQSIASINVSEAAPCVQNFHECLVDFNTGIWLSFNGKVQDSMKVFCDVATKSREYYCALGASQLMSTDVPTVSNRQLKFVADGCDALALSELCRHAFHQLLVNATTSHVVTMPYEALRGKAPATMLGGTIRTMEDYLRNDPAGLLSSDAFISNGVRLYTLEGGTQMRRLELLNDLIEVFRCDRASAPPIDKIV,not soluble
5,GPGSMPRCTTLPLSSFPSLLTFMTVCAASSSPPLPRFRVAHLCRRGKDCLALARSLSLPIVEGAEGGGGRCGCSEWRREGAGERCSVFYLSLPASNFMCINFASPLHLRSPGARHIDVQDVPMERNTLQVVASAVNAEALSGAEDHACHASPVHRVYRLRDACTTLQLILLAYKYRRCSAHSMTVAMFVEACAYDLVQGVRVLESAPLSSSPGHDSSGDAIATLEAPWFYIGSEAGGDVRVYLLLPTYADYFLDYTMHWARVAYSEMARQYVGHSLIAKLQTVGGGWASLHRADKSLACALQLHAVAQAVFDEDVVRKCRLFIGWAHLWNSEPAKALEVFYAELAAARRHGDTIQERRCLHAIQNAEHNPRLAPGGAHTGHYQLVNLWWRALA,soluble
6,GPGSMPSAPTSVTAVVQLPPLIDCHVHFREPGLEHKADIASESTAAYYGGITVACDMPNTSPPTQSVAALADKVARAKATAHAHCQLFFFFGATAEAHLQELEELWTNPAHAELKTHCCGLKLYLDNSTGNMKSSLSVVEKSFEMCGRLQIVLVAHCEQSEINDAAAAQHPYDGPASHSLRRPADSEAASVQSAIALARQCRTPLHLAHVSTAQSLDLIREARAADPTLQLTCEVTPHHLFLTTSDYSCCGARVKVNPPVRPPQHHEALWAGLLDGTVDCVGTDHAPHTIAEKDHCDAAAQPPSGMPAIEVVVPLLLTVVAGQWPHPTAAKPSALAAAEHQGRTLTLDDVVRVLHTNPNRIFNLRQPDAPHRSFDLACEWTVRGEELHSKCQWTPYEGWRLRGRVLANE,soluble

# — the DeepSol protein solubility set
